{"source": "paper PMC11827763", "about": "“A Gold Nanoparticle-based Aptasensor for Specific Detection of CA125”", "molecular_target": "CA125 (carbohydrate antigen 125) (UniProt Q8WXI7 1-14451)", "assay": "AuNP aggregation aptasensor (A660/A520); 200 nM aptamer, citrate AuNPs ~13 nm, NaCl 1 M stock added after binding; linear 15-160 U/mL, LOD 14.41 U/mL; 50 uL CA125 (15-160 U/mL) + 50 uL aptamer (200 nM), 30 min, room temperature; then 50 uL AuNPs 5 min, 10 uL 1 M NaCl 5 min; buffer and pH not stated", "conditions": "protein: commercial; predicted stem-loop"}
{"binder": "TCACTATAGGGAGACAAGAATAAACGCTCAA (ssDNA)", "note": "[CA125 aptamer (31-mer)]", "values": [{"measurement": "binding result", "result": "binds"}]}
